In a protein production outcome set (Wang et al. 2014):

Assay: label from the status in PepcDB records

Sequence	protein production
MPQIYFSAAERRPKFVMKTGLSATEKNEVIKAAYRQIFERDITRAYSLSISDLESKVKNGDISMKEFVRRLAKSPLYQKQFYQPFINSRVIELAFRHILGRGPSSREEVQKYFSIISNGGLPALVDALVDSAEYSDYFGEETVPYLRGLEHHHHHH	failed
MPQRNDRSRSTPTTSPKNNSWFRMQAGHQSDADIYIYDEIGFWGVTAKQFISDLNALGDITHINLNINSPGGDVFEGIAIFNALKTHGASITVYVDGVAASMASVIAMVGKPVIMPENSFMMIHKPFGFTGGDAEDMRTYADLLDKVEAVLLPAYAQKTGKTTDEIAAMLADETWMSGAECLAHGFADQVTPAVKAMACIQSKRTEEFKKMPESIRNMITPPRNSAPRVQDDGPAASRTPVQAAAPVVDENSIRAQVLAEQKARVNGINDLFAMFGGRYQTLQAQCLADPECSLEQAREKLLNEMGRESTPSNKNTPXHIYAGNGNFVGDGIRQALMARAGFEKTERDNVYNGMTLREYARMSLTERGIGVSSYNPMQMVGAAFTHSTSDFGNILLDVANKAILQGWEDAPETYEQWTRKGQLSDFKIAHRVGMGGFSALRQVREGAEYKYVTTGDKQATIALATYGELFSITRQAIINDDLNMLTDVPMKLGRAAKSTIADLVYAILTSNPKISTDNVSLFDKAKHANVLESAAMDVASLDKARQLMRVQKEGERHLNIRPAFVLVPTAMESVANQVIRSSSVKGADINAGIINPVKDFATVIAEPRLDDNSQTTFYLAASKGSDTIEVAYLNGVDTPYIDQMEGFSVDGVTTKVRIDAGVAPVDHRGLVKCTA	failed
MPQRRPLRTMKWLIPGLWLASILFAHFRGRVRLSLSRQMLDHSVLLAPVNAFMVLTSRVPTTPYLTTSEIPELKVLDDNWETIRDEALKMAELRRIKAAERHDDIGFNSFFKYGWKRFYLKWYDARHPSAEELCPKTVAILKSLPKVKAAMFAELPPGGKLNPHRDPFSGSLRYHLGLATPNDDRCYIAVDGESYSWRDGESVVFDETYVHEAHNKSEGNRIILFCDVERPLKWRWAEAFNRWFGRVVMSAASSPNDAGDQTGAINKLTHAHWVIDQKRKQFKAWNRTVYKATKWGLIALVAIGFLAL	failed
MPQVETTSVFRADLLKEMESSTGTAPASTGAENLPAGSALLVVKRGPNAGARFLLDQPTTTAGRHPESDIFLDDVTVSRRHAEFRINEGEFEVVDVGSLNGTYVNREPRNAQVMQTGDEIQIGKFRLVFLAGPAELEHHHHHH	not failed
MPRGLILATPQLPPDGTPFSARYDDVYHSTEGGLAQAHHVFLGGNGLPGGWQGKRSFTIVETGFGQGLNFLATWAAWRDDPQRCGRLDFVSVEKHPFDRAGLALVHAQEGALASLAEALRQAWPVPVPGVHRLVFDAGRVTLTLMLGDAETLLPQLSCAADAFYLDGFSPAKNPDLWQPGVFKQLARIARGGATLATYTAAGAVRHGLREAGFEVRKAPGFGRKRDMTVAAFPTHWRTRRGPAEAPVWPERHAIVLGAGLAGCSVAERLAARGWRITLIDEHEAPAGGASAHRAAAMHPHVSIDDSVLSRLSRAGNLLARRHWEALDRAGFATGFHPTGVLQLAEHADDAAEQQRIVQALGFPADFIAWLDAARAADRVGAGVPQGGWWFAQAGWVAPPDICRAALAAAGEAVELRWRTRIESLLRHDAGWRACDAQGNVIAHAPVVVLANSLDAVRLAPLASAALKPVRGQLTDVPVAALEDGVPWPRAVVCGDGYLLPRERGAPTVRVGSSFQPGETDPDARTADHAANLRRLAGLQPAHAAALARVDPARLLGYVGVRCVSANRLPLIGAVADEAAIMAPGFRLRGPHAALPRVPGLYAALAYGSRGLTWSVLGAELLAAQIDGGPLPLESELAAALDPGRFLMRALRHGKHAA	failed
MPRVIPPENLGCPPFRALTFDSLGLIKVTEARGQERGIPTVVNTWGEMNASRSVLAASIDDRLRNPLLAVARKDGNVEVINPCNGDLHFSYSVFGDDGCSPEDNEISALHLFRKKIDDQTERSCTLLTCTKKGDVSLRSVKFPDAHGNSTDDASPKTWKACGSGEILVGKVDGSENFSLFGGKRVEANIWDLEQCTKIWSAKCPPKNNLGIFTPTWFTSATFLSKDDHRKFVTGTKSHQVRLYDISTQRRPVLSFDFRETAITSIAEDPDGHTIYVGNASADLASFDIRTGKLLGSFLGKCSGSIRSVVRHPQHQVIASCGLDRYLRVYDVKTRQLISAVFLKQHLTGLVFDSGFSGEETAVANTVAEAATEEKMTIMDQEDDETEKAPVKRKKSKKEKRSREIVFEGEDDEENEDEIEKAPVKTKKSKKEKRSREKVSEGEEKDELRSKKTREHKKKTKIVKHNQED	failed
MPRYPVRPADHAQSAEGGVTAVDRALTLLTAFRVTDQTLSLSELSERASLVPSTVLRLLASLMHFGFVLRRPDGRYALGPAAARLNRVYAASFNLQDVVLPALQELVGQTRESASFHVRQGAHRLVLYRVSSPQPLSDQSHTGDLLPLDRGTGGHVLMAFSDTPGEFYEALRLRGYMASPVSDRSPELAGISAPVFDAQGMLAGALTLTMPVHRYKDAHIPVLREAAARLSAALGA	failed
MPSENPIGKTMKSIDEQSLHNARRLFESGDIDRIEVGTTAGLQQIHRYLFGGLYDFAGQIREDNISKGGFRFANAMYLKEALVKIEQMPERTFEEIIAKYVEMNIAHPFLEGNGRSTRIWLDLVLKKNLKKVVNWQNVSKTLYLQAMERSPVNDLELRFLLKDNLTDDVDNREIIFKGIEQSYYYEGYEKG	not failed
MPSFLEISPDKLNRLIGTPGAPRIIDVRTDEDFALDPRLVPGSIRRDHAEVASWADSIDADAVVVVCHRGAKLSHGVAAYLRHAGIEAESLAGGFEAWAAAGPAVPEAKLSRRDAQGRTVWVTRARPKIDRIACPWLIRRFIDPNAVFLFVPAPEVVAVGERFGAAPFDIEDVFWSHRGELCTFDVMVEEFGLASEPLLRLAQIVRAADTARLDLAPEASGLLAASLGLSRMYSDDLEQLEAGMLLYDAFFRWCRDATEETHNWPAPKKRALEHHHHHH	not failed
MPSIVKGIIPPVLTPMKSDRSIDFEALERLVEHLIAGGVDGLFALGSSGEVAFLSDEDRATVIREIVRIAAGRVPVYAGVIDMQVNRMLGHIKAAEEAGVD	not failed
MPSLNQIFFGPPGTGKTYATVEATLQILDQPFLAKNAGSRSALKARFDELLAAGDVRFVTFHQSFSYEDFVEGLRATTDEQGQIRYEVVSGVFRSLCESVATELSGKYRAFKVGDRYGTGYKVTRATPDVVEIEKPQGKHLPIGMSLLNTLASYVDAGTFTIEELGNGRWDKKVPGSVLDPFLVNGYKNFLPSMVEHMLGKNEEGLFEPAPVQHSDAKVLIIDEINRGNVSRIFGELITLIEPSKRAGADEALEVTLPYSKERFSIPGNIHLIGTMNTADRSLAALDIALRRRFTFIEVPPNPELLDEVEVDGIAIDELLSLMNQRIAALLDRDHCLGHAYFMPLKDEPTLERLEGIFREQILPLLQEYFFEDWQRIQWVLNDQRKAPENSFLIQLSQDLIALFGDTVTVGQSNERWELNLPAFQKIESYLGVIDHNLKVGAPLEAKNVRTDGIDIRQSADGCIDVYRGGQHIKPTKPLLRELASKHGISSTSASGSELNTRSLGRKIIKFLSEQQG	failed
MPSLQDLYAAFRRIAPYTHRTPLLTSRLLDGLLGKRLLLKAEHLQKTGSFKARGALSKALALENPKGLLAVSSGNHAQGVAYAAQVLGVKALVVMPEDASPYKKACARAYGAEVVDRGVTAKNREEVARALQEETGYALIHPFDDPLVIAGQGTAGLELLAQAGRMGVFPGAVLAPVGGGGLLAGLATAVKALSPTTLVLGVEPEAADDAKRSLEAGRILRLEAPPRTRADGVRTLSLGERTFPILRERVDGILTVSEEALLEAERLLFTRTKQVVEPTGALPLAAVLEHGARLPQTLALLLSGGNRDFSP	not failed
MPSPRLQHSKPPRRLSRAQKHSSGSSNTSTANRRAHLRLCLERLKVLIPLGPDCTRHTTLGLLNKAKAHIKKLEEAERKSQHQLENLEREQRFLKWRLEQLQGPQEMERIRMDSIGSTISSDRSDSEREEIEVDVESTEFSHGEVDNISTTSISDIDDHSSLPSIGSDEGYSSASVKLSFTS	failed
MPSSSLDISSALMIISLCALIDILSPGVLTVTAYLLLTQPNQLSSRLFVFLFITQLGYFITGLLLYFGGNSLLKRIEQLSQFDFINWFYILLGAVLVLISFSKPKETAKKRLISFIPKNTTIKGMIILGIIVFLIEFVTALPYFYSIFLMNHQTIETTPAILIIIGYNLVMVLPSLLLLGVNIIFKERLQQFLIKIRSKLNEAPISSLLVATGVIGAVFFNIGLRGILN	failed
MPSSSQYRRYQDPHHPSIPTPTTLFSQPSLEILGGGVAEELPELALCCDGTVVEGRSNCRCKARAVLPGGMRVRLSKTLAGILRHHPGRYGVRLTREGWARVSEVVEGLRKAGWSWVEEWHIVGVALHDPKGRYELRNGEIRARYGHSIPVNVEPLPGEPPPILYHGTTEEALPLIMERGIMRGRRLKVHLTSSLEDAVSTGRRHGNLVAVLLVDVECLRRRGLKVERMSKTVYTVDWVPPECIAEVRRESLGRSL	not failed
MPSVSVNKQGIVKVNSALNMRSGPGSNYGVIGTLRNNDEVEIIKEVDGWYEIKFNGKSGYVSSQYIKVLEHHHHHH	not failed
MPSYGNLGRLGGRHEYGVLVAMTSSAELDRVRWAHQLRSYRIASVLRIGVVGLMVAAMVVGTSRSEWPQQIVLIGVYAVAALWALLLAYSASRRFFALRRFRSMGRLEPFAFTAVDVLILTGFQLLSTDGIYPLLIMILLPVLVGLDVSTRRAAVVLACTLVGFAVAVLGDPVMLRAIGWPETIFRFALYAFLCATALMVVRIEERHTRSVAGLSALRAELLAQTMTASEVLQRRIAEAIHDGPLQDVLAARQELIELDAVTPGDERVGRALAGLQSASERLRQATFELHPAVLEQVGLGPAVKQLAASTAQRSGIKISTDIDYPIRSGIDPIVFGVVRELLSNVVRHSGATTASVRLGITDEKCVLDVADDGVGVTGDTMARRLGEGHIGLASHRARVDAAGGVLVFLATPRGTHVCVELPLKR	failed
MPTERPTTTAPVSLRERRRTAAAREILDAAEQHIGEHGPAALSLRAVARGLGMTVQALYHYFPNRDALVTALITKAYGELSDVLQAAADSVRADPATPRPVAVAEAYRGWGVARPEHFQLLYGTPLRYYAAPAEGPTTQAVRRMGAIFQRELFAGFTPAQLAAAEVPALSPSYREHLEQLPMHAQGDLPPAAASLFLSAWGHVHGLVVLEVFGHTAFLGDHQAEVFRTSVRMMLEDIHRRIPAA	not failed
MPTETFFNLPEEKRSRLIDVLLDEFAQNDYDSVSINRITERAGIAKGSFYQYFADKKDCYLYLIQLGIEQKTAFLRQTPPASTTDMFAYLRWLLDVGIQFQFHNPRLAQIAYKALYDDVPLPAETMQVIRHGSFAYFKQLVEQGIADGSLVPDLDADTAAFVLNVVFTELGNHLIERFAVNPAELLREGGIVLLQPAMRRVIEQVIDILERGMRRR	not failed
MPTICEFLGYKVYMFYQDHSPPHIHVIGKGFRAALSIPEGKLLAGTLPRRVQGVAKMWVRQEATALMQNWLRAEAGEVLQQVKPPEGWLEHHHHHH	failed
MPTIKDYYLPKRPTLLFSLHPEPTQAIINGTKILEYRRRFFARPFQAFVYTTGDNGGIQLFLRCDQGLQLVPEQLALVGALLQHDAPTTTAAYFEGAKAGLALPITAFTTLPNIPLAQLRRQFENFVTPRSYVFLDQPDRQAQLDWLLTQPCESLTILDWRKRYAALATLLQKLEHHHHHH	not failed
MPTLGFRFRAYTDEQTLRALKAQLKSACKIYNTLRWADIYFYQRDGKGLTRTELRQLALDLRKQDDEYKQLYSQVVQQVADRYYEAKKRFFEGLAHFPKEKKPHKHYSLVYPQYGWKILQVREIRKGSKKKLITLKLSNLGTFKVIVHRDFPLDKVKRVVVKLTRSERIYITFVVDHEFPKLPNTGKVVAIDVGVEKLIVTSDGEYFPNLRPYEKALWKVKHLHRELSRKKFLSHNWFKAKVKLARAYEYLKNLRTDLYMKLGKWFAEHYDVVVMEGIHVKQLIGKSLRSLRRRLSDVAFSELRDLIKYQLEKYGKKLILVNPAYTSKTCAKCGYVKEDLSLSDRVFVCPNCGWIADRDYNASLNILRGSGSERPLVWSSALYQYSGMAELLEHHHHHH	not failed
